Legend:
chick chondrocytes = assay: Alkaline phosphatase (AP) activity in RA-stimulated chick chondrocyte cultures; type: cell-based; settings: F-Spondin 1 ug/ml with RA, 3 days
Description: FIG. 16. Inhibition of F-spondin decreases AP activity in RA stimulated cultures. Chick chondrocytes were treated with RA at 100 nm for 5 days with and without F-spondin antibodies and AP activity assessed. Antibodies with specificities to the spondin domain (medium grey) and TSR domain (black) inhibited AP activity compared to ctrl (noAb) (light grey). Note the greater inhibitory effect of the TSR domain antibody. * p=<0.05 versus no ab ctrl.
FIG. 17. The pro-maturation effect of F-spondin is not inhibited following neutralization of TGF-β activity by coculture with Latency Associated Peptide (LAP). AP activity was determined in chick chondrocyte cultures by ELISA following RA stimulation for 3 days. Cultures were either ctrl (RA only) or RA with either F-Spondin (1 ug/ml) or LAP (10 or 100 ng/ml), or RA with F-Spondin (1 ug/ml) and LAP (10 or 100 ng/ml) in combination.
FIG. 18. Blocking αvβ3 integrin inhibits the promaturation effect of F-spondin. Chondocyte cultures were transfected as previously and stimulated with RA for 3 days in the presence of IgG control, or αvβ3 blocking antibodies prior to assay for AP activity. Inhibition of αvβ3 led to a ˜50% suppression of F-spondin-induced AP activity but had no effect on baseline AP activity (vector ctrl).
FIGS. 23A, 23B and 23C. F-spondin regulation of chondrocyte maturation requires the TSR domain. (A) Schematic representation of F-spondin protein domains and plasmid constructs encoding either full length (FS1) or TSR domain truncated (FS6) cDNAs. (B) Relative AP activity of FS or pcDNA3 control transfected cultures after 5 days treatment. (C) Relative AP activity following inhibition of F-spondin protein domains. Upper sternal chondrocytes were stimulated with 0, 10, 35 or 100 nM retinoic acid (RA) for 5 days in culture. […]
We next determined that the pro-maturation effect of F-spondin is not inhibited following neutralization of TGF-β activity by coculture with Latency Associated Peptide (LAP) (R&D Systems, Cat No 246-LP/CF). […] AP activity was determined in chick chondrocyte cultures by ELISA following RA stimulation for 3 days. […]

[1] = test system: chondrocytes in monolayer culture; assay: F-spondin effects on genes/gene products, preliminary experiments with chondrocytes in monolayer culture; type: cell-based, human; set-up: key to TNFα regulation / IL-1β regulation / AGC1 regulation / PGE2 regulation / MMP-13 regulation / TGF-β regulation / BMP-2 regulation / MMP-1 regulation / IL-8 regulation / IL-6 regulation / COL2A1 regulation: F-spondin-mediated upregulation*; downregulation**
Description: F-spondin induced both catabolic and anabolic gene/gene products in chondrocytes including BMP-2, type II collagen, TGF-β1, COX-2, mPGES and PGE2. To begin to address the question of whether selected F-spondin effects in cartilage are mediated by prostaglandin production, we have begun studies to characterize the effect of PGE2 in cartilage. Addition of PGE2 (1-10 uM) to cartilage explants inhibited type II collagen, aggrecan expression, ^35SO4 incorporation, as well as increased type II collagen degradation as assessed by C12C ELISA (IBEX). […] Relative to normals, NURR1 was overexpressed in OA cartilage (2-5 fold) and synovium (2 fold), confirmed by QPCR. Incubation of OA chondrocytes with PGE2 (1-10 uM) induced NURR1 expression (20-50 fold), as analyzed by QPCR. Since NURR1 binds to the NURR1 cis-acting sequence (NBRE) in the promoter region of a variety of genes, we examined the effect of adenoviral-mediated over-expression of NURR1 in chondrocytes.
For initial experiments, chondrocytes isolated from OA knee joints will be used, building from our previous observations using monolayer cultures of these cells (Attur M G, Dave M, Cipolletta C, Kang P, Goldring M B, Patel I R, et al. Reversal of autocrine and paracrine effects of interleukin 1 (IL-1) in human arthritis by type II IL-1 decoy receptor. Potential for pharmacological intervention. J Biol Chem 2000; 275(51):40307-15). However, because OA chondrocytes endogenously express F-spondin, at least initially, there is a potential for a masking effect between control and F-spondin-transduced cultures. To address this, experiments will also be performed in both “normal” chondrocytes isolated from non-arthritic cartilage (obtained from NDRI, Philadelphia) and immortalized C28I2 chondrocytes, where endogenous F-spondin expression is low and absent, respectively (unpublished data). Using this experimental culture system, we expect similar metabolic responses among chondrocyte sources, however if variation between sources is observed, to F-spondin either with or without IL-1, they will be noted and investigated further. For each group and time point, alginate cultures and conditioned cell culture media supernatants will be analyzed by quantitative PCR, ELISA and biochemical assays for molecular markers associated with cartilage anabolism and catabolism. Based on our preliminary findings with F-spondin and IL-1 treatment of monolayer chondrocytes, we predict that at least some of these molecules will be modulated in alginate cultures.

B1: F-spondin: 110 kDa, secreted, heparin-binding extracellular matrix glycoprotein; used as recombinant protein (R&D systems) or transfected-cell supernatant (protein, UniProt Q9HCB6 29-807, looked up)
Spondin-1: FSDETLDKVPKSEGYCSRILRAQGTRREGYTEFSLRVEGDPDFYKPGTSYRVTLSAAPPSYFRGFTLIALRENREGDKEEDHAGTFQIIDEEETQFMSNCPVAVTESTPRRRTRIQVFWIAPPAGTGCVILKASIVQKRIIYFQDEGSLTKKLCEQDSTFDGVTDKPILDCCACGTAKYRLTFYGNWSEKTHPKDYPRRANHWSAIIGGSHSKNYVLWEYGGYASEGVKQVAELGSPVKMEEEIRQQSDEVLTVIKAKAQWPAWQPLNVRAAPSAEFSVDRTRHLMSFLTMMGPSPDWNVGLSAEDLCTKECGWVQKVVQDLIPWDAGTDSGVTYESPNKPTIPQEKIRPLTSLDHPQSPFYDPEGGSITQVARVVIERIARKGEQCNIVPDNVDDIVADLAPEEKDEDDTPETCIYSNWSPWSACSSSTCDKGKRMRQRMLKAQLDLSVPCPDTQDFQPCMGPGCSDEDGSTCTMSEWITWSPCSISCGMGMRSRERYVKQFPEDGSVCTLPTEETEKCTVNEECSPSSCLMTEWGEWDECSATCGMGMKKRHRMIKMNPADGSMCKAETSQAEKCMMPECHTIPCLLSPWSEWSDCSVTCGKGMRTRQRMLKSLAELGDCNEDLEQVEKCMLPECPIDCELTEWSQWSECNKSCGKGHVIRTRMIQMEPQFGGAPCPETVQRKKCRIRKCLRNPSIQKLRWREARESRRSEQLKEESEGEQFPGCRMRPWTAWSECTKLCGGGIQERYMTVKKRFKSSQFTSCKDKKEIRACNVHPC
**Q.** What does the source list for B1?
**A.** AP activity (chick chondrocytes): increase; COX-2 gene/gene product ([1]; chondrocytes): induced; mPGES gene/gene product ([1]; chondrocytes): induced; AGC1 regulation ([1]; preliminary, monolayer culture): AGC1*; BMP-2 regulation ([1]; preliminary, monolayer culture): BMP-2*; COL2A1 regulation ([1]; preliminary, monolayer culture): COL2A1*; IL-1β regulation ([1]; preliminary, monolayer culture): IL-1β**; IL-6 regulation ([1]; preliminary, monolayer culture): IL-6*; IL-8 regulation ([1]; preliminary, monolayer culture): IL-8*; MMP-1 regulation ([1]; preliminary, monolayer culture): MMP-1**; MMP-13 regulation ([1]; preliminary, monolayer culture): MMP-13*; PGE2 regulation ([1]; preliminary, monolayer culture): PGE2*; TGF-β regulation ([1]; preliminary, monolayer culture): TGF-β*; TNFα regulation ([1]; preliminary, monolayer culture): TNFα**

From US20140274766A1, “METHODS OF USING F-SPONDIN AS A BIOMARKER FOR CARTILAGE DEGENERATIVE CONDITIONS AND BONE DISEASES” (priority 2009, published 2014)
